± gives the standard deviation of the averaged measurements.
System: ATP
Experiment: switch fluorescence ratio, 500 uM ATP over buffer (Cy3 cluster intensity, sum of 5 cycles each) (fold (ratio)); higher = stronger signal-on switching upon ATP binding; sequences stand for … in TCGTCGGCAGCGTCAGATGTGTATAAGAGACAGTTTTTTTTTTTTTTTTTTTTTTTTT…TC
Settings: aptamer strand: ATP DNA aptamer (quencher-CACCTGGGGGAGTATTGCGGAGGAAGG + anchor), 100 nM annealed; ATP concentration: 500 uM
Outline: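 Values give the fluorescence ratio for each switch-domain sequence, averaged from per-cluster ratios of summed target-cycle to summed buffer-cycle Cy3 intensity. The Cy3-labelled switching-strand clusters sat on a modified Illumina MiSeq flow-cell, were annealed to 100 nM quencher-labelled ATP aptamer, and were imaged in selection buffer, then after 15 min with 500 uM ATP at 22 °C. Five cycles ran with NaOH stripping and re-annealing between them, and clusters outside 100-1000 RFU were excluded.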
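Further: ATP exposure 15 min at 22 °C before imaging.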

Row | Sequence | switch fluorescence ratio
1 | TCTGTCTCTG | 1.01 ± 0.014
2 | TCTGTGGGGG | 1.01 ± 0.016
3 | TCTGTGGGTT | 0.973 ± 0.051
4 | TCTGTGTTGG | 0.98 ± 0.02
5 | TCTGTTCATG | 1.001 ± 0.0081
6 | TCTGTTGGAC | 0.997 ± 0.024
7 | TCTTAACGGC | 1.04 ± 0.05
8 | TCTTACGAAG | 1.27 ± 0.27
9 | TCTTACGGCT | 1.03 ± 0.033
10 | TCTTAGGCTG | 1.01 ± 0.018
11 | TCTTAGGTTG | 1.028 ± 0.0062
12 | TCTTAGTTCA | 0.9825 ± 0.0062
13 | TCTTATGTTA | 0.989 ± 0.021
14 | TCTTCTGGGA | 1.026 ± 0.0038
15 | TCTTGAGGGG | 0.982 ± 0.034
16 | TCTTGATTGT | 0.974 ± 0.017
17 | TCTTGCTTC | 1.0084 ± 0.00091
18 | TCTTGGCACA | 1.036 ± 0.0061
19 | TCTTGGGGCA | 1.01 ± 0.019
20 | TCTTGGGTTT | 0.992 ± 0.012
21 | TCTTGGTTGA | 0.968 ± 0.02
22 | TCTTGTCGTT | 1.019 ± 0.0077
23 | TCTTGTGAGG | 1.04 ± 0.13
24 | TCTTGTTTGA | 1.008 ± 0.0059
25 | TCTTGTTTGG | 0.994 ± 0.049

Row | Sequence | switch fluorescence ratio
26 | TCTTTATATT | 1.02 ± 0.048
27 | TCTTTATTAA | 0.989 ± 0.011
28 | TCTTTCACGC | 1.09 ± 0.085
29 | TCTTTCTGGG | 1.03 ± 0.021
30 | TCTTTGACAG | 1.02 ± 0.015
31 | TCTTTGACGC | 1.21 ± 0.013
32 | TCTTTGATGA | 0.983 ± 0.051
33 | TCTTTGGGGA | 1.04 ± 0.04
34 | TCTTTGTCGG | 0.977 ± 0.029
35 | TCTTTTTATA | 1.04 ± 0.017
36 | TCTTTTTCCC | 1.01 ± 0.022
37 | TCTTTTTGTT | 0.99 ± 0.018
38 | TGAAAAAAAA | 0.971 ± 0.025
39 | TGAAAAAAT | 0.977 ± 0.051
40 | TGAAAAAATC | 0.987 ± 0.019
41 | TGAAAACACC | 1.13 ± 0.15
42 | TGAAAACGGG | 1.022 ± 0.0095
43 | TGAAAATAGT | 0.965 ± 0.029
44 | TGAAACTTGT | 1.01 ± 0.041
45 | TGAAAGATGT | 1.01 ± 0.035
46 | TGAAAGCACA | 1.11 ± 0.06
47 | TGAAAGCCCG | 1.048 ± 0.0056
48 | TGAAAGTATT | 1 ± 0.022
49 | TGAAATAGGA | 1.01 ± 0.039
50 | TGAAATATTC | 0.993 ± 0.019

Row | Sequence | switch fluorescence ratio
51 | TGAAATGATG | 0.9977 ± 0.0082
52 | TGAAATGGCT | 0.997 ± 0.034
53 | TGAAATTACG | 1.03 ± 0.022
54 | TGAAATTACT | 1.05 ± 0.033
55 | TGAACGACAG | 1.031 ± 0.0093
56 | TGAACTGCTG | 1.017 ± 0.0049
57 | TGAACTTGAG | 1.01 ± 0.0062
58 | TGAAGAAAGG | 0.981 ± 0.02
59 | TGAAGATATA | 0.99 ± 0.015
60 | TGAAGATATT | 0.993 ± 0.023
61 | TGAAGCATCC | 1.822 ± 0.0073
62 | TGAAGCTGCC | 1.28 ± 0.042
63 | TGAAGCTTTA | 1.06 ± 0.048
64 | TGAAGGATGA | 0.9978 ± 0.0058
65 | TGAAGGGCGT | 0.9927 ± 0.0081
66 | TGAAGGGGAA | 1.02 ± 0.061
67 | TGAAGGGTGA | 1.007 ± 0.0094
68 | TGAAGGGTTG | 1.01 ± 0.026
69 | TGAAGTATGA | 1.03 ± 0.045
70 | TGAAGTATTT | 1 ± 0.037
71 | TGAAGTTAGT | 0.975 ± 0.03
72 | TGAAGTTTTA | 0.989 ± 0.025
73 | TGAATAAAGC | 1.05 ± 0.02
74 | TGAATACTTT | 0.996 ± 0.044
75 | TGAATCTTGG | 1.02 ± 0.044

Row | Sequence | switch fluorescence ratio
76 | TGAATGGGGA | 1.01 ± 0.029
77 | TGAATGGTCT | 1.01 ± 0.03
78 | TGAATTTCTT | 0.986 ± 0.022
79 | TGAATTTTAT | 0.9885 ± 0.0073
80 | TGAATTTTGT | 0.978 ± 0.036
81 | TGACAAAGGG | 0.988 ± 0.024
82 | TGACACAGGA | 1.04 ± 0.024
83 | TGACAGCCTT | 1.068 ± 0.0032
84 | TGACAGGGGA | 1.02 ± 0.033
85 | TGACAGTGAA | 1.01 ± 0.02
86 | TGACATTCGA | 1.0321 ± 0.00051
87 | TGACCAGGCA | 1.05 ± 0.056
88 | TGACCGTTTT | 0.999 ± 0.025
89 | TGACGACGCC | 4.6 ± 0.054
90 | TGACGAGCGA | 2.25 ± 0.24
91 | TGACGAGTAA | 1.5 ± 0.28
92 | TGACGGATGC | 1.197 ± 0.01
93 | TGACGGTAGC | 1.06 ± 0.056
94 | TGACGGTTTA | 1.023 ± 0.0016
95 | TGACGTACCC | 1.7 ± 0.05
96 | TGACGTGCGT | 1.02 ± 0.012
97 | TGACTAAACA | 1.056 ± 0.0059
98 | TGACTAGGGG | 0.949 ± 0.1
99 | TGACTGAAAA | 1.009 ± 0.007
100 | TGACTGGGTA | 1 ± 0.021
